From article PMC10521975, “Species-specific cleavage of cGAS by picornavirus protease 3C disrupts mitochondria DNA-mediated immune sensing”

Molecular target: T1, pcGAS full-length (pcGASFL) (Sus scrofa (porcine), UniProt I3LM39 1-495)
T1 sequence: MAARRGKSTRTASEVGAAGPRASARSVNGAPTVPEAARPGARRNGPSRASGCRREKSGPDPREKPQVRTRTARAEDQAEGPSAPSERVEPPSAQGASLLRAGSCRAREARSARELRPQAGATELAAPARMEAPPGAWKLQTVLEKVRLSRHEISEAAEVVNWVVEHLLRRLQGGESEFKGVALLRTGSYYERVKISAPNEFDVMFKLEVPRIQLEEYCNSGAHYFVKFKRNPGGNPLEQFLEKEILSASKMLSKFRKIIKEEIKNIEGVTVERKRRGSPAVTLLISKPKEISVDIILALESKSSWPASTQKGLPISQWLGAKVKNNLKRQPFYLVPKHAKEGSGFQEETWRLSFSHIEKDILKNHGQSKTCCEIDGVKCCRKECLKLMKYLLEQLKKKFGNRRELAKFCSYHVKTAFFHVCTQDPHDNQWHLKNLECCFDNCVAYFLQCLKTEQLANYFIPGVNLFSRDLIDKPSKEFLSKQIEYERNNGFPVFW
Assay: EMSA; pcGAS dose series; EMSA: 50 uM ISD45, pcGAS at DNA:protein 1:1 to 1:32, RT 1 h, 1% agarose in 40 mM Tris-HCl pH 9.2; pull-down: pcGAS + 3C in 50 mM HEPES pH 7.5, 3 mM EDTA, 150 mM NaCl, 0.005% Tween-20, 10 mM DTT at 37 C 2 h, then 4 h with HSV60 streptavidin beads
Settings: protein: recombinant; tags: N-term His6-SUMO-FLAG, C-term HA (SUMO kept on full-length protein); blunt

B1: ISD45 (dsDNA)
DNA 1: TACAGATCTACTAGTGATCTATGACTGATCTGTACATGATCTACA
DNA 2: TGTAGATCATGTACAGATCAGTCATAGATCACTAGTAGATCTGTA
binding result: binds
